From IntAct's records for PubMed 34597683

B1: Prickle-like protein 1 (Mus musculus), Q3U5C7 (parent)
chain: MPLEMEPKMSKLVFGCQRSSTSDDDSGCALEEYAWVPPGLRPEQIQLYFACLPEEKVPYVNSPGEKHRIKQLLYQLPPHDNEVRYCQSLSEEEKKELQVFSAQRKKEALGRGTIKLLSRAVMHAVCEQCGLQMNGGEVAVFASRAGPGVCWHPSCFVCFTCNELLVDLIYFYQDGKIHCGRHHAELLKPRCSACDEIIFADECTEAEGRHWHMKHFCCLECETVLGGQRYIMKDGRPFCCGCFESLYAEYCETCGEHIGVDHAQMTYDGQHWHATEACFSCAQCKASLLGCPFLPKQGQIYCSKTCSLGEDIHASDSSDSAFQSARSRDSRRSVRMGRSSRSADQCRQSLLLSPALNYKFPGLSGNADDTLSRKLDDVSLASRQGAGFANEEFWKARVEQEASEDPEEWAEHEDYMTQLLLKFGDKNLFQQQSSEVDPRASEHWIPDNMVTNKPEVKPNHQGLASKKYQSDMYWAQSQDGLGDSAYGSHPGPASSRRLQELDLDHGAAGYTHDQSQWYEDSLECLSDLKPEQSIRDSMDSLALSNITGASVDGESKPRPSLYSLQNFEEIEAEDCEKMSNMGTLNSSMLHRSAESLQSLNSGLCPEKILPEEKPAHLPVLRRSKSQSRPQQVKFSDDVIDNGSYDIEIRQPPMSERTRRRAYHFEERGSRPHHHRHRRSRKSRSDNALNLVTERKYSAKDRLRLYTPDNYEKFIQNKSARELQAYMQNANLYSQYAHATSDYALQNPGMNRFLGLCGEDDDSWCSSSTSSSDSEEEGYFLGQPIPQPRPQRFTYYTDDLSSPASALPTPQFTQRTTKSKKKKGHKGKNCIIS
partner: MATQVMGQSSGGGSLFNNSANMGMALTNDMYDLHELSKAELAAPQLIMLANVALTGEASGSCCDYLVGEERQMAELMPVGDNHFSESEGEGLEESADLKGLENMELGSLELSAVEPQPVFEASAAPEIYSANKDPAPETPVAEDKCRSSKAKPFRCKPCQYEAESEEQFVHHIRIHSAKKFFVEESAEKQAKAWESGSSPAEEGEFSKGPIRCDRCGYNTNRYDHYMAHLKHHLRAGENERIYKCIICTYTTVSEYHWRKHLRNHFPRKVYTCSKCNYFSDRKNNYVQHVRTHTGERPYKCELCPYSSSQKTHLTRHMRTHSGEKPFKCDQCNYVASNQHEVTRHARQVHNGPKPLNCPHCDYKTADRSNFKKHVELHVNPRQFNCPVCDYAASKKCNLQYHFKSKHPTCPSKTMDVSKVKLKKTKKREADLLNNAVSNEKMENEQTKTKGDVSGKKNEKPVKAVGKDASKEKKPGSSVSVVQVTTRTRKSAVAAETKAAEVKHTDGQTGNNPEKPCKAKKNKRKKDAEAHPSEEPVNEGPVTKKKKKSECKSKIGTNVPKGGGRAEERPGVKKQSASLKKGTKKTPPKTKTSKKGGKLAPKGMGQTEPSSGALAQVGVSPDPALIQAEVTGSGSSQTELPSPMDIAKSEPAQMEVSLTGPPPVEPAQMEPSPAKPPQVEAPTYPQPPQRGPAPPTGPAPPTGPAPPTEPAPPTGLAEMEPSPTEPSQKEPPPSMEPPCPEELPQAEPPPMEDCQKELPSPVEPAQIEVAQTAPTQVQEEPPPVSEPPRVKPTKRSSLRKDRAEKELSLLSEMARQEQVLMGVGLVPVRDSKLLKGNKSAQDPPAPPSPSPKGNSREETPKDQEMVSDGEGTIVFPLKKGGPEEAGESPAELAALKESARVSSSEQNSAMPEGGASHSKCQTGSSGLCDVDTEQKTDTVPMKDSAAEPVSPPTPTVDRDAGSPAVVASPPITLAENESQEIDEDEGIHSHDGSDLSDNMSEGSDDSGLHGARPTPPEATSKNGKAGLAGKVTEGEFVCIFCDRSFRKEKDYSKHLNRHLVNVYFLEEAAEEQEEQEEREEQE

Variants of: B1
Conditions: with rest_mouse Rest

Row | Variant | effect of a mutation on the interaction
1 | R104Q | decreasing interaction
